Laboratory results: patent US6677433B2 (The Regents of the University of California, priority 2001, dated 2004)

Assays:
[1] = test system: wheat protease preparation; assay: Proteolysis by a plant protease preparation (SDS-PAGE, laser densitometer); type: biochemical
Method: The endosperm (10-15 g fresh weight) isolated from 5-day germinated wheat seeds by excising the roots and shoots was extracted for 30 minutes at 4° C. with 5 volumes of 200 mM sodium acetate, pH 4.6, containing 10 mM β-mercaptoenthanol. The homogenate was centrifuged for 20 minutes at 48,000 g, 4° C. The pellet was discarded and the supernatant fluid was fractionated with 30-70% ammonium sulfate. This fraction, which represented the protease preparation, was resuspended in a minimum volume of 20 mM sodium acetate, pH 4.6, containing 10 mM β-mercaptoenthanol, and dialyzed against this buffer overnight at 4° C.
Unless indicated, the reduction of the trypsin inhibitors (0.4 mg/ml) was carried out in 0.1 ml of 20 mM sodium phosphate buffer, pH 7.9 containing 10 mM EDTA at 30° C. for 2 hours. […] Proteolytic products were analyzed by electrophoresis with 12% or 16% SDS polyacrylamide slab gels (Laemmli, 1970). […]
To test whether the reduced forms of KTI and BBTI show decreased stability to proteases other than trypsin, both the reduced and oxidized forms of KTI and BBTI were incubated with a wheat protease preparation or with subtilisin and the proteolytic products were analyzed by SDS-PAGE. The extent of proteolysis was determined by measuring the abundance of intact protein on SDS gels by laser densitometer. […]

NADP/thioredoxin system = NADP/thioredoxin system (Escherichia coli, UniProt P0AA25)
Method: Direct reduction of the proteins under study was determined by a modification of the method of Crawford et al. (Crawford, N. A. et al. (1989), Arch. Biochem. Biophys. 271:223-239). The reaction was carried out in 100 mM potassium phosphate buffer, pH 7.1, containing 10 mM EDTA and 16% glycerol in a final volume of 0.1 ml. As indicated, 0.7 μg (0.1 μM) NTR and 1 μg (0.8 μM) thioredoxin (both routinely from E. coli were added to 70 μl of the buffer solution containing 1 mM NADPH and 10 μg (2 to 17 μM) of target protein. When thioredoxin was reduced by dithiothreitol (DTT, 0.5 mM), NADPH and NTR were omitted. Assays with reduced glutathione were performed similarly, but at a final concentration of 1 mM. After incubation for 20 min, 100 nmoles of mBBr were added and the reaction was continued for another 15 min. To stop the reaction and derivatize excess mBBr, 10 μl of 10% SDS and 10 μl of 100 mM β-mercaptoethanol were added and the samples were then applied to the gels. In the case of reduction by glutaredoxin, the thioredoxin and NTR were replaced by 1 μg (0.8 μM) E. coli glutaredoxin, 1.4 μg (0.14 μM) glutathione reductase purified from spinach leaves (Florencio, F. J. et al. (1988), Arch. Biochem. Biophys. 266:496-507) and 1.5 mM NADPH was used.

B1: Soybean Kunitz: Kunitz soybean trypsin inhibitor (protein, UniProt P01070 25-205, looked up)
Trypsin inhibitor A: DFVLDNEGNPLENGGTYYILSDITAFGGIRAAPTGNERCPLTVVQSRNELDKGIGTIISSPYRIRFIAEGHPLSLKFDSFAVIMLCVGIPTEWSVVEDLPEGPAVKIGENKDAMDGWFRLERVSDDEFNNYKLVFCPQQAEDDKCGDIGISIDHDDGTRRLVVSKNKPLVVQFQKLDKESL
- degraded by wheat protease preparation [1]: about 80%
- % Reduction After 20 min (NADP/thioredoxin system): 14%
- % Reduction After 120 min (NADP/thioredoxin system): 22%
